What was measured:
Assay type in all cases: physicochemical
[1] = FRET on dilution, tetramer equilibrium
Procedure: The mixture of FITC-XCL and RITC-XCL was diluted to various concentrations and incubated for 1 hour at ambient temperature. The fluorescence spectrum was recorded with a light excitation at 468 nm. In order to substantially determine the decrease in the energy transfer and normalise the intensity of the fluorescence, a ratio I580/I520 was calculated for each concentration and taken according to the concentration in XCL (FIG. 4). […] Evidently, the titration curve is not complete as long as the saturation is not reached for the points with the strongest concentration. Due to the solubility limit of XCL and of the labelling protocol, the concentrations in protein cannot exceed 10 μM in this experiment.

[2] = Thermal dissociation by NMR DOSY
Procedure: The thermal dissociation was also followed by DOSY experiments (Diffusion Ordered SpectrometrY). The ratio of the hydrodynamic radius of XCL and of the dioxane were measured according to the temperature (FIG. 9).
If the tetramer is dissociated by increasing the temperature, a decrease in this ratio is expected and therefore of the hydrodynamic radius of XCL. […] After 50° C., the protein sample precipitates out as already described in the fluorescence experiments with tryptophan.

[3] = Size exclusion chromatography at variable concentration, tetramer equilibrium
Procedure: (§1) The size exclusion chromatography experiments were carried out on a GE-Healthcare Superose 12 PC 3.2/30 column. The columns are pre-balanced in the buffer tested, namely phosphate buffer 50 mM, 100 mM NaCl, pH7.2 or pH 4.4 in the absence or in the presence of 0.003% of SDS. The flow rate is 0.5 mL/min. The BSA and the RNase A are used as a size marker.
In order to confirm the data obtained in FRET, the displacement of the balance was evaluated by gel exclusion chromatography. Bovine Serum Albumin (BSA) and ribonuclease A were used to calibrate the column. Elution volumes of 12.6 ml and of 15.5 ml were obtained respectively. At a strong concentration (here 30 μM), XCL has an elution volume of 13.2 ml close to the elution volume of BSA as expected for tetrameric species. […] However, it was shown by digital simulation that according to the association rate, the rate of dissociation, the flow rate and separation characteristics of the column, two populations of molecules that are exchanging could lead to a single peak via size exclusion chromatography (Yu et al., (2006)). The inventors carried out several injections by using variable concentrations of XCL and observed that indeed a single peak was obtained. However this peak is displaced to longer elution volumes as the concentration decreases, indicating a smaller molecular weight.

[4] = FRET kinetics of subunit exchange (tetramer dissociation)
Procedure: The speed of the exchange of subunits was measured by the same technique. The reaction is initiated by mixing the same volume of XCL-RITC (1 μM) and of XCL-FITC (1 μM) at 25° C. in 50 mM of phosphate buffer, 100 mM NaCl, pH 8.5. The excitation is carried out at 468 nm and the fluorescence emission at 580 nm is recorded every 0.5 seconds. The fluorescence intensity is normalised by using the equation: […]
where F(t) represents the experimental fluorescence in the time considered, F0 the value of the initial fluorescence, and F∞ the value of the final fluorescence when the state of equilibrium is reached. The kinetic data was modelled with the GOSA software (Czaplicki et al. (2006)). The best model was obtained for a double exponential of equation:
F=1−[a×e^−k^1^t+(1−a)×e^−k^2^t]
where: a represents the proportion of molecules at slow dissociation, k1 the kinetic constant of the slow dissociation and k2 the kinetic constant of the fast dissociation.
The dissociation kinetic of the tetramer was studied by mixing XCL-FITC and XCL-RITC and by measuring the fluorescence emission intensity at 580 nm as a function of time (FIG. 6).
The increase in the fluorescence intensity and therefore the effectiveness of the transfer between the fluorescein and the rhodamine are the result of two successive phenomena: firstly the dissociation of the tetramers into dimers and secondly their reassociation. Considering the shape of the curve (FIG. 6), no lag time is observed at the beginning of the kinetics which implies that the speed of reassociation is much faster than the speed of dissociation. It can therefore be considered that the speed of reassociation is negligible in this case. The kinetic data obtained was modelled using the GOSA software. The most suitable model for describing the phenomenon observed is a double exponential growth with two dissociation reactions that have difference speeds: […]

[5] = Chemical dissociation by size exclusion chromatography at acidic pH
Procedure: as §1
The inventors studied the behaviour of XCL in denaturing chemical conditions close to those encountered in the lysosomes. The analysis was carried out via exclusion chromatography with an acidic pH (pH 4.4). It appears that the elution peak of XCL in these denaturing conditions is displaced to greater elution volumes showing the appearance of a smaller size. When 0.003% SDS is added, the elution peak is displaced to the elution volume of the RNAse A which has a molecular weight close to the XCL monomer.
The behaviour of the oxidised mutant A38C was also analysed. […] The addition of the disulphide bridge therefore increases the stability of the protein assembly.

[6] = SDS-PAGE of tetramer and disulphide bridge stability; conditions: 2% of SDS, not heated before deposit
Procedure: The clone A38C was obtained by directed mutagenesis by using the XCL plasmid as a matrix and the protein produced and purified by using the same protocol as that used to produce XCL (Trigueros et al. (2003)). A yield of 25 mg of purified protein per litre of culture was obtained. The last part of the protocol consisted in a step of oxidation for 12 hours in the presence of 10 mM of oxidised glutathione. This step is required in order to produce disulphide bridges between the monomers. The forming of these covalent bonds was verified by SDS-PAGE. Two SDS-PAGE were prepared. Beta-mercaptoethanol was added to the samples in the first gel while beta-mercaptoethanol was not added to the second gel. When XCL is heated to 95° C. 5 min before the deposit, a single band is observed with a molecular weight slightly greater than 20 kDa on the two gels. This band corresponds to the species in monomer form.
A variant T12C was produced in the same manner as A38C by directed mutagenesis by using the XCL plasmid as a matrix. By using the same protocol, 10 mg of protein per litre of culture were produced. The oxidation rate of the variant T12C was sought by using the same method by SDS-PAGE as for A38C. These rates were compared with those obtained with the variant A38C. Several oxidative conditions were tested with different concentrations of reduced glutathione. […]

[7] = 25° C., pH 8.5, double exponential model

B1: XCL: Xerocomus chrysenteron lectin, fungal sporocarp lectin forming a tetramer with central cavity, SEQ ID NO: 1 (protein)
chain: MSYSITLRVYQTNRDRGYFSIVEKTVWHFANGGTWSEANGAHTLTQGGSGTSGVLRFLSTKGERITVAVGVHNYKRWCDVVTGLKPDETALVINPQYYNNGGRDYVREKQLAEYSVTSAIGTKVEVVYTVAEGNNLEANVIFS
modifications: Xerocomus chrysenteron
concentration of the transition in energy transfer intensity (I580/I520) ([1]; 1 hour at ambient temperature): close to the micromolar
maximum protein concentration (solubility limit and labelling protocol) ([1]; labelled XCL in FRET experiment): ≤ 10 µM
temperature after which the protein sample precipitates out ([2]; DOSY): > 50 °C
hydrodynamic radius versus temperature ([2]; ratio of hydrodynamic radius of XCL and dioxane): no transition in the hydrodynamic radius is observed
concentration of the transition in elution volume [3]: close to the micromolar
a: proportion of molecules engaged in the slow reaction [4, 7]: 0.39
k1: kinetic constant of the slowest dissociation reaction [4, 7]: 0.72 min⁻¹
k2: kinetic constant of the fastest dissociation reaction [4, 7]: 2.52 min⁻¹
time until balance of fluorescence intensity at 580 nm is reached ([4]; mixing XCL-FITC and XCL-RITC): more than 300 seconds
oligomeric state by elution volume at pH 4.4 with SDS ([5]; pH 4.4, 0.003% SDS): these dimers are dissociated into monomers
oligomeric state by elution volume at pH 4.4 ([5]; pH 4.4, no SDS): dissociation of the tetramer into a dimer
oligomeric form on SDS-PAGE [6]: remained in tetrameric form

From patent US20150182631A1, “SYSTEM FOR […]-BASED ACTIVE INGREDIENTS” (Centre National De La Recherche Scientifique-CNRS, priority 2012, published 2015)
